Sequences and labels used below:
B1: MGC16075 (parent)
chain: AGSRQALSFEVPPCNYDPEKWIQ
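Also: lentivirally expressed fusions sorted by FACS into six bins by GFP to DsRed ratio, PSI derived from sequencing read proportions per bin multiplied by bin number.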

The variants in this data set derive from B1. The experiment in a line: protein stability index of a GFP-peptide fusion (GPS, HEK-293T) (PSI 1-6); higher = more stable. The note with it: c terminus: native.
Take AGSRQALSFYVPPCNYDPEKWIQ [E10Y]: the protein stability index is 1.75. The same measure for AGSRQALSFNVPPCNYDPEKWIQ [E10N]: 1.7; for AGSRQALSFPVPPCNYDPEKWIQ [E10P]: 2.3. In the case of AGSRQALSFVVPPCNYDPEKWIQ [E10V], the protein stability index stood at 1.08. To AGSRQALSFSVPPCNYDPEKWIQ [E10S] belongs 2.44; to AGSRQALSFRVPPCNYDPEKWIQ [E10R], 1.97. The same measure for AGSRQALSFQVPPCNYDPEKWIQ [E10Q]: 1.23; for AGSRQALSFEVPPYNYDPEKWIQ [C14Y]: 2.23. To AGSRQALSFEVPPDNYDPEKWIQ [C14D] belongs 2; to AGSRQALSFEVPPTNYDPEKWIQ [C14T], 2.2. Turning to AGSRQALSFEVPPGNYDPEKWIQ [C14G], the protein stability index is 1.42. The same measure for AGSRQALSFEVPPWNYDPEKWIQ [C14W]: 1.56; for AGSRQALSFEVPPLNYDPEKWIQ [C14L]: 1.39; for AGSRQALSFEVPPNNYDPEKWIQ [C14N]: 1.92.

For AGSRQALSFEVPPRNYDPEKWIQ [C14R], the protein stability index was found to be 1.92.

As for AGSRQALSFEVPPFNYDPEKWIQ [C14F], the protein stability index came out at 1.5.

For AGSRQALSFEVPPHNYDPEKWIQ [C14H], the protein stability index amounted to 2.1.

For the variant AGSRQALSFEVPPANYDPEKWIQ [C14A], the protein stability index came to 2.28. To AGSRQALSFEVPPENYDPEKWIQ [C14E] belongs 2.21; to AGSRQALSFEVPPSNYDPEKWIQ [C14S], 2.56. The same measure for AGSRQALSFEVPPVNYDPEKWIQ [C14V]: 1.95. To AGSRQALSFEVPPINYDPEKWIQ [C14I] belongs 1.59; to AGSRQALSFEVPPKNYDPEKWIQ [C14K], 1.64.

With AGSRQALSFEVPPMNYDPEKWIQ [C14M], the protein stability index was 1.23. To AGSRQALSFEVPPQNYDPEKWIQ [C14Q] belongs 2.05.

In the case of AGSRQALSFEVAPCNYDPEKWIQ [P12A], the protein stability index came to 1.79. The same measure for AGSRQALSFEVGPCNYDPEKWIQ [P12G]: 1.37; for AGSRQALSFEVMPCNYDPEKWIQ [P12M]: 2.33; for AGSRQALSFEVIPCNYDPEKWIQ [P12I]: 1.17. The same measure for AGSRQALSFEVNPCNYDPEKWIQ [P12N]: 1.67. For AGSRQALSFEVDPCNYDPEKWIQ [P12D], the protein stability index was 1.97. To AGSRQALSFEVWPCNYDPEKWIQ [P12W] belongs 2.69. To AGSRQALSFEVEPCNYDPEKWIQ [P12E] belongs 2.14. Take AGSRQALSFEVRPCNYDPEKWIQ [P12R]: the protein stability index was 1.81.

Turning to AGSRQALSFEVCPCNYDPEKWIQ [P12C], the protein stability index is 2.41. To AGSRQALSFEVKPCNYDPEKWIQ [P12K] belongs 1.73; to AGSRQALSFEVFPCNYDPEKWIQ [P12F], 2.92.

Take AGSRQALSFEVTPCNYDPEKWIQ [P12T]: the protein stability index came out at 1.99. For the variant AGSRQALSFEVSPCNYDPEKWIQ [P12S], the protein stability index amounted to 1.71. On to AGSRQALSFEVQPCNYDPEKWIQ [P12Q], for which the protein stability index was determined as 2. To AGSRQALSFEVLPCNYDPEKWIQ [P12L] belongs 4.23; to AGSRQALSFEVVPCNYDPEKWIQ [P12V], 2.72.

Regarding AGSRQALSFEVPPCNYAPEKWIQ [D17A], the protein stability index worked out at 2.18. The same measure for AGSRQALSFEVPPCNYLPEKWIQ [D17L]: 1.81. The same measure for AGSRQALSFEVPPCNYSPEKWIQ [D17S]: 1.49.

With AGSRQALSFEVPPCNYQPEKWIQ [D17Q], the protein stability index came to 2.18. The same measure for AGSRQALSFEVPPCNYFPEKWIQ [D17F]: 1.57; for AGSRQALSFEVPPCNYRPEKWIQ [D17R]: 2.15; for AGSRQALSFEVPPCNYWPEKWIQ [D17W]: 1.91. The same measure for AGSRQALSFEVPPCNYMPEKWIQ [D17M]: 1.9; for AGSRQALSFEVPPCNYVPEKWIQ [D17V]: 2. AGSRQALSFEVPPCNYPPEKWIQ [D17P]: the protein stability index was 1.74.

Consider AGSRQALSFEVPPCNYYPEKWIQ [D17Y], for which the protein stability index amounted to 2.15.

As for AGSRQALSFEVPPCNYKPEKWIQ [D17K], the protein stability index stood at 3.23.

As for AGSRQALSFEVPPCNYGPEKWIQ [D17G], the protein stability index was 2.29. The same measure for AGSRQALSFEVPPCNYIPEKWIQ [D17I]: 2.17. The same measure for AGSRQALSFEVPPCNYEPEKWIQ [D17E]: 2.07; for AGSRQALSFEVPPCNYTPEKWIQ [D17T]: 1.92; for AGSRQALSFEVPPCNYHPEKWIQ [D17H]: 2.12. To AGSRQALSFEVPPCNYCPEKWIQ [D17C] belongs 1.29; to AGSRQALSFEVPPCNYNPEKWIQ [D17N], 1.51.

Turning to AGSRQALSFEVPPCNKDPEKWIQ [Y16K], the protein stability index was 1.61. In the case of AGSRQALSFEVPPCNQDPEKWIQ [Y16Q], the protein stability index came out at 2.54. To AGSRQALSFEVPPCNMDPEKWIQ [Y16M] belongs 2.03. The same measure for AGSRQALSFEVPPCNVDPEKWIQ [Y16V]: 2.47.

For AGSRQALSFEVPPCNWDPEKWIQ [Y16W], the protein stability index turned out to be 1.47. The same measure for AGSRQALSFEVPPCNDDPEKWIQ [Y16D]: 2.52. To AGSRQALSFEVPPCNSDPEKWIQ [Y16S] belongs 1.48. The same measure for AGSRQALSFEVPPCNCDPEKWIQ [Y16C]: 2.17; for AGSRQALSFEVPPCNRDPEKWIQ [Y16R]: 1.24; for AGSRQALSFEVPPCNADPEKWIQ [Y16A]: 1.54. In the case of AGSRQALSFEVPPCNGDPEKWIQ [Y16G], the protein stability index is 3.5.

For the variant AGSRQALSFEVPPCNEDPEKWIQ [Y16E], the protein stability index turned out to be 2.64. In the case of AGSRQALSFEVPPCNNDPEKWIQ [Y16N], the protein stability index was determined as 2.2.

For the variant AGSRQALSFEVPPCNFDPEKWIQ [Y16F], the protein stability index came out at 1.68. The same measure for AGSRQALSFEVPPCNPDPEKWIQ [Y16P]: 2.22; for AGSRQALSFEVPPCNTDPEKWIQ [Y16T]: 2.53; for AGSRQALSFEVPPCNHDPEKWIQ [Y16H]: 1.46. Take AGSRQALSFEVPPCNIDPEKWIQ [Y16I]: the protein stability index stood at 2.01.

Turning to AGSRQALSFEVPPCNLDPEKWIQ [Y16L], the protein stability index was 2.04. The same measure for AGSRQALSFESPPCNYDPEKWIQ [V11S]: 1.84; for AGSRQALSFENPPCNYDPEKWIQ [V11N]: 1.68. AGSRQALSFEWPPCNYDPEKWIQ [V11W]: the protein stability index was determined as 2.04.

Consider AGSRQALSFETPPCNYDPEKWIQ [V11T], for which the protein stability index was 1.89. To AGSRQALSFEKPPCNYDPEKWIQ [V11K] belongs 2.61; to AGSRQALSFEYPPCNYDPEKWIQ [V11Y], 3.25. As to AGSRQALSFEHPPCNYDPEKWIQ [V11H], the protein stability index is 1.93.

Turning to AGSRQALSFECPPCNYDPEKWIQ [V11C], the protein stability index was found to be 2.02. To AGSRQALSFEEPPCNYDPEKWIQ [V11E] belongs 2.07; to AGSRQALSFELPPCNYDPEKWIQ [V11L], 1.3; to AGSRQALSFEPPPCNYDPEKWIQ [V11P], 1.75. To AGSRQALSFEQPPCNYDPEKWIQ [V11Q] belongs 2.38. The same measure for AGSRQALSFERPPCNYDPEKWIQ [V11R]: 2; for AGSRQALSFEAPPCNYDPEKWIQ [V11A]: 2.52; for AGSRQALSFEIPPCNYDPEKWIQ [V11I]: 2.6.

Turning to AGSRQALSFEGPPCNYDPEKWIQ [V11G], the protein stability index was found to be 1.63. To AGSRQALSFEDPPCNYDPEKWIQ [V11D] belongs 2.93.

The values above are taken from the supplement of paper PMC10567573.
